Laboratory results from article PMC11360004.

Assays:
[1] = target: Kelch-like ECH-associated protein 1 (Keap1), Cy3-labeled (UniProt Q14145); assay: MST; Monolith NT.115; Cy3-labeled Keap1 at constant concentration, MNT titrated; 25 mM sodium phosphate, 150 mM NaCl, pH 8.0
[2] = target: α/β importin complex labeled with Cy3 (UniProt Q14974); assay: MST; Cy3-labeled β-importin in the α/β importin complex at constant concentration, MNT titrated; 20 mM HEPES, 110 mM KCl, 5 mM NaHCO3, 5 mM MgCl2, 0.1 mM CaCl2, 1 mM EGTA, 1 mM DTT, pH 7.4
Sequence of UniProt Q14974 (Q14974 whole entry, looked up, one chain of several): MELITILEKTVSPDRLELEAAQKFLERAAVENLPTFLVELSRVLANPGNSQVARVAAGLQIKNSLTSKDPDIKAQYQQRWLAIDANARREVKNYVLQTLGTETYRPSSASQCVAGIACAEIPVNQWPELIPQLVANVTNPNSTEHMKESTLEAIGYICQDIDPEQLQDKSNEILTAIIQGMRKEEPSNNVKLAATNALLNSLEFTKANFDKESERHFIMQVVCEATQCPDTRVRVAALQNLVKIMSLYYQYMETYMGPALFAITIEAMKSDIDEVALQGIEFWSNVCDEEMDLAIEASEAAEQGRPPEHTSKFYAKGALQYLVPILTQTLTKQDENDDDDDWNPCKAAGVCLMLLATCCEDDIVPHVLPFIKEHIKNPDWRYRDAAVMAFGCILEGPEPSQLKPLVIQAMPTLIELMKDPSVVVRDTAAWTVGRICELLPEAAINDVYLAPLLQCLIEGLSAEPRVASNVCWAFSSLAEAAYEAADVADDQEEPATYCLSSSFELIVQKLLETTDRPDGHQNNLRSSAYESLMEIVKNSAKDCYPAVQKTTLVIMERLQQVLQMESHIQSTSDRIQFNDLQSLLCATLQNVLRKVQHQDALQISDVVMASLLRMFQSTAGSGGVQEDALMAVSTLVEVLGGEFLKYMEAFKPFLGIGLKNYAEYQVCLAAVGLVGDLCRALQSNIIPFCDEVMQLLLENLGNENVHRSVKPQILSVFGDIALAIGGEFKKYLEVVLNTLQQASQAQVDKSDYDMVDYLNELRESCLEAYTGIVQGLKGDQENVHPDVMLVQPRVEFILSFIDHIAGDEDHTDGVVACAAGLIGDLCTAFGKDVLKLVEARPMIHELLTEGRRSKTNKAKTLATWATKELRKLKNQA

[3] = target: epidermal growth factor receptor (EGFR) on A431 cells (human (endogenous in A431)) (UniProt P00533); assay: fluorescent-labeled ligand competitive binding on cells (plate reader); A431 cells fixed with 0.5% paraformaldehyde in 48-well plates; 25 nM Alexa-647-labeled MNT1 and different concentrations of MNTC or MNTN; DMEM with 1% BSA, 15 mM HEPES, pH 7.3, overnight at +4 °C

Sequence of UniProt Q14145 (Q14145 whole entry): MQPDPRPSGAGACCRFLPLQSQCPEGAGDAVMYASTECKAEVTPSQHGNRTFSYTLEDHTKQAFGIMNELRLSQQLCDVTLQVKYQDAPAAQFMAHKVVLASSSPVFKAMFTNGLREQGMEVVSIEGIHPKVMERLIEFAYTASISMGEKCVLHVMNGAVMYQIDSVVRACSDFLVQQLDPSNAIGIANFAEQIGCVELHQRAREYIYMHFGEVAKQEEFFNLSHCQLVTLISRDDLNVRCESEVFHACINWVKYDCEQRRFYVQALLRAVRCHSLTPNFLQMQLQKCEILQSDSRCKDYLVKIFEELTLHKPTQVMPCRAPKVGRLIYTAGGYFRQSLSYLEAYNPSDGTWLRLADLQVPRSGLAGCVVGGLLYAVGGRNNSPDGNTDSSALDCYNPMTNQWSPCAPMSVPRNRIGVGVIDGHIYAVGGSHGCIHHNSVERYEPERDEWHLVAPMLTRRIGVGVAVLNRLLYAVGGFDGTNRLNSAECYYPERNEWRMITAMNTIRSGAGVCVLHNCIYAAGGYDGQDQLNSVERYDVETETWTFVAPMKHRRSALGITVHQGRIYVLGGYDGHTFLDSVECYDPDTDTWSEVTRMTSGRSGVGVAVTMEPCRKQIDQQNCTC

Substance “DTox-HMP-NLS-EGF (original modular nanotransporter with full-size HMP carrier module) (from UniProt P24232 1-396)” has a Kd [1] of 205 nM.
“DTox-HMPN-NLS-EGF (modular nanotransporter with the N-terminal fragment of HMP) (from UniProt P24232 1-136)” gave a Kd [2] of 160 nM, a Kd [1] of 428 nM and a Kd [3] of 20 nM.
